Experimental findings from US20090041783A1 (MOCHIDA PHARMACEUTICAL, published 2009) are described below.

Test [1] concerns the target T1, human GPVI extracellular region-human Fc fusion protein (hGPVI-hFc) (human).
T1 construct: Expressed in COS-1, purified on Protein A; also called GPVI-HHH-hFc; hGPVIHHH-hFc
Put plainly: blocking ELISA: binding of hGPVI-hFc to immobilised collagen in the presence of the antibody (panel Comparsion of mouse anti-GPVI monoclonal antibodies).

In test [2] the target is T1, human GPVI extracellular region-human …. As to the kind of experiment: competition ELISA on immobilised hGPVI-hFc: unlabelled antibody against the peroxidase-labelled mouse antibody of the panel titled F1232-10-2 competition assay (the text, paragraph 248, names F1232-10-1); x axis relative amount to labeled Ab (fold). As for the experimental part: Next, by using the peroxidase-labeled antibody, the competitive test for a variety of purified antibody was performed. That is, 25 μL of the above labeled antibody and 25 μL of each purified antibody were added to well of hGP-hFc-immobilized plate. After incubation at 37° C. for one hour, the well was washed five times with the saline containing 0.05% Tween20, and the reaction mixture was developed with TMB solution (BioFix). After incubation at room temperature for 10 minutes, the reaction was terminated with 0.5 M sulfuric acid solution and an absorbance at 450 nm was measured with the plate spectrophotometer (Multi-Scan JX, Dainippon Pharmaceutical).
To compare an antigen binding property of mouse/human chimeric antibody with that of the corresponding mouse monoclonal antibody, in the same method as that of EXAMPLE 14, peroxidase-labeled F1232-37-2, F1232-18-3, F1232-43-3 and F1232-10-1 were prepared. […] Further, an inhibiting activity of each antibody for binding of GPVI to collagen was measured according to the method described in EXAMPLE 2 or EXAMPLE 14. […]
On the technique in general: In an ELISA, binding on a coated surface is turned into a signal by an enzyme label.

The target is the same in test [3]. Put plainly: competition ELISA on immobilised hGPVI-hFc: unlabelled antibody against labelled cF1232-37-2/COS. As for the experimental part: (§1) To the plate, wherein hGPVI-hFc has been immobilized at 4 μg/mL, a mixture of peroxidase-labeled F1232-37-2 or cF1232-37-2 by the method described in EXAMPLE 14, and hGPVI-hFc, mGPVI-hFc, hGPVI-mL3-hFc, wherein these were prepared in EXAMPLE 7, or hGPVI-K59E-hFc (a fusion protein consisting of one amino acid mutated human GPVI extracellular region, wherein lysine at 59 of human GPVI is substituted for glutamic acid, and human Fc), which has been prepared by the same method as that of EXAMPLE 1 and diluted with 0.1% BSA/PBS was added, and the plate was incubated at 37° C. for one hour. After incubation, the mixture was developed using TMB solution, and absorbance at 450 nm was measured.
To confirm the reactivity of cF1232-37-2/CHO, using binding ability to hGPVI-hFc as an index, the competitive test with cF1232-37-2 prepared by transient gene expression system with COS cells was performed. The measurement method was in accordance with the method described in 17-3 of EXAMPLE 17. Using hGPVI-hFc as an immobilized protein, a competitive activity to labeled cF1232-37-2/COS was confirmed when unlabeled cF1232-37-2/CHO or cF1232-37-2/COS was added at a variety of concentration. It was confirmed that the reactivity of cF1232-37-2/CHO is equivalent to that of cF1232-37-2/COS.

The next test concerns the target T2, hGPVI-mL3-hFc (human (loop 3 from mouse)).
T2 construct: also called hGPVI-hFc-mL3
As to the kind of experiment: competition ELISA on hGPVI-hFc plate; soluble hGPVI-mL3-hFc as competitor. As for the experimental part: as §1

The next test has as its target T3, hGPVI-K59E-hFc (human).
T3 construct: Fusion of human GPVI extracellular region with lysine at 59 of human GPVI substituted for glutamic acid, and human Fc
Put plainly: competition ELISA on hGPVI-hFc plate; soluble hGPVI-K59E-hFc as competitor. As for the experimental part: as §1

The target of test [4] is T1, human GPVI extracellular region-human …. Put plainly: SPR (BIACORE 3000), hGPVI-hFc on CM5 chip, 0-800 nM analyte, 1:1 binding fit. As for the experimental part: (§2) Dissociation constant for F1232-37-2 (whole antibody) prepared in EXAMPLE 2, and F(ab′)2 and Fab prepared in 22-1 and 21-2 was measured with Protein Interaction Analyzer BIACORE 3000 (BIACORE). That is, to sensorchip CM5 (BIACORE) hGPVI-hFc prepared in EXAMPLE 1 was bound according to the manual. Then a series of dilution from 0 to 800 nM of each antibody was prepared with HBS-EP buffer (BIACORE) and analyzed with BIACORE 3000. After completion of antibody binding, chip was regenerated with glycine buffer (pH 1.5) (BIACORE). Regarding the results of whole antibody and F(ab′)₂, evaluation software Bivalent analyte (BIACORE) was used for analysis; 1:1 Binding for Fab analysis. Then the dissociation constant was calculated. As a result, dissociation constant of F1232-37-2 F(ab′)2 and Fab was about 0.7 and 0.6, respectively, when that of whole antibody defined as one.
A general note: In SPR one partner is held on a chip, and binding of the other changes the refractive index at the surface.

Test [5] has the same target. Put plainly: ELISA on immobilised hGPVI-hFc (GPVI antigen binding assay of Example 31).
Test [6] shares this target. Put plainly: SPR (BIACORE 3000), hGPVI-hFc on CM5 chip, 0-800 nM analyte, bivalent analyte fit. As for the experimental part: as §2
The target is the same in test [7]. Put plainly: ELISA on immobilised hGPVI-hFc, peroxidase-labelled anti-mouse immunoglobulin antibody. As for the experimental part:
Binding activity to the antigen was detected by ELISA. To each well of immunoplate immobilized with hGPVI-hFc (prepared by the method described in EXAMPLE 2 and the like), F1232-37-2 antibody and F1232-37-2 PEGylated antibody, wherein both antibodies had been adjusted to the same concentration, was added and the plate was incubated at 37° C. for one hour. The well was washed with saline containing 0.05% Tween20. Then 50 μL of peroxidase-labeled anti-mouse immunoglobulin antibody (DAKO, P260), which had been diluted by 1000-fold with 10% rabbit serum-containing D-PBS, was added to each well. After incubation at 37° C. for one hour, coloring reaction by the TMB substrate was done to measure an absorbance at 450 nm with plate spectro-photometer (Molecular Devices, Wako). As a result, it was confirmed that both F1232-37-2 antibody and PEGylated F1232-37-2 antibody have almost equivalent binding activity.

Test [8] has the same target. Put plainly: SPR (BIACORE3000), GPVI-Fc on CM5 chip, antibody 1.25-40 nM as analyte, bivalent analyte fit. As for the experimental part:
(§3) Dissociation constant for the anti-GPVI monoclonal antibody prepared in EXAMPLE 2 was measured using protein interaction analyzer BIACORE3000 (BIACORE). That is, to sensor chip, CM5 chip (BIACORE), GPVI substitution mutant (hGPVIHHH-hFc and FFH-hFc) that is prepared in EXAMPLE 1 was linked according to the manual. Then each antibody was diluted with HBS-EP buffer solution (BIACORE) to prepare a series of diluted solution from 1.25 to 40 nM, and analyzed with BIACORE3000. Every each antibody bound chip, the chip was regenerated with glycine buffer solution at pH1.5. The obtained result was analyzed with Bivalent analyte, the evaluation software (BIACORE) to calculate dissociation constant. It was shown that each anti-GPVI monoclonal antibody has a sufficient affinity to GPVI-HHH-hFc.

Test [9] deals with T4, cynomolgus monkey D1D2-human D3 chimeric GPVI-human Fc fusion protein (GPVI-FFH-hFc) (cynomolgus monkey (D1, D2) and human …).
T4 construct: also called Monkey GPVI
The test is described as above. As for the experimental part: as §3

T1 sequence (chain, as listed by the source limits assumed): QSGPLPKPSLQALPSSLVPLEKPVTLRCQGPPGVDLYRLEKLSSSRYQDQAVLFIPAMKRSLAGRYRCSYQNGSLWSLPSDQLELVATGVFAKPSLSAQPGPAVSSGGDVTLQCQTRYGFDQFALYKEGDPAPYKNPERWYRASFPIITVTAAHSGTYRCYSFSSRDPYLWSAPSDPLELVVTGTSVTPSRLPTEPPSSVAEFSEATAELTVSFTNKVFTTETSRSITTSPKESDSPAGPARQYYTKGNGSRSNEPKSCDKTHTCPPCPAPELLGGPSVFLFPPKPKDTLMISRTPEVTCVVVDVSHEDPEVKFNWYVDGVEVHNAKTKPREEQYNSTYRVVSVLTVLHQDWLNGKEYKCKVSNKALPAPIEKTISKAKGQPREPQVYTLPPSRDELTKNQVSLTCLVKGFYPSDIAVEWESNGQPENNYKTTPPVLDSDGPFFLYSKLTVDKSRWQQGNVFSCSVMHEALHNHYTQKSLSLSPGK
T2 sequence (chain, as listed by the source limits assumed): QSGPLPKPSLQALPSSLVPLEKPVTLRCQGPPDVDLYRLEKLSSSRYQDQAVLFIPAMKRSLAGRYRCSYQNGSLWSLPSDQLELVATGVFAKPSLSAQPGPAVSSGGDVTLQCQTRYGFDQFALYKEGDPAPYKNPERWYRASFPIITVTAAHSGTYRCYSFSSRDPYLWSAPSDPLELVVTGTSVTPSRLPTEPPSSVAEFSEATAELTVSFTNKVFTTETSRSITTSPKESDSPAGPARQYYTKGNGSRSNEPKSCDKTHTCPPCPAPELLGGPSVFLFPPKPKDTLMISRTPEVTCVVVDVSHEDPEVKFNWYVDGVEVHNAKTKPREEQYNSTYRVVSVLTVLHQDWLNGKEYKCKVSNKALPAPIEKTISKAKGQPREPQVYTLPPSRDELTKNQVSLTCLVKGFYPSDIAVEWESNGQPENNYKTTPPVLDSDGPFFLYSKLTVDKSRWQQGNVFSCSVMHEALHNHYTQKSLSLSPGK
T3 sequence (chain, as listed by the source K59E K59E limits assumed): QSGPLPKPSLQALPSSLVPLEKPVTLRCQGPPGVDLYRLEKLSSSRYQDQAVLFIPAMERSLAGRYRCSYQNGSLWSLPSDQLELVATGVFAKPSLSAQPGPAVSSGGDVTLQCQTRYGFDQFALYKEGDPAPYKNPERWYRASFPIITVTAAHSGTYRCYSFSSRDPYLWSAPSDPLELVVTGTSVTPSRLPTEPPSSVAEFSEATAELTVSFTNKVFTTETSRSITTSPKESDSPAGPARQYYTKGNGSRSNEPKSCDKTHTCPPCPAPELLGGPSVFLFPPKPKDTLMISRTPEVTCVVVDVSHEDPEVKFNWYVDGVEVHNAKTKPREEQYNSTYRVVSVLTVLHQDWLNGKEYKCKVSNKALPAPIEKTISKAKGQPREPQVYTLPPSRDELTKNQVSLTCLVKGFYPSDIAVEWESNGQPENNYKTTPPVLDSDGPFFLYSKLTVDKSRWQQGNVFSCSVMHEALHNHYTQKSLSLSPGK
T4 sequence (chain, as listed by the source mutant limits assumed): as the sequence (chain, as listed by the source K59E K59E limits assumed) above, with S2R, E59K, S61H, L78P, R166G, V181M, P442S counted along it

B1: F1232-10-1 (antibody, V domains shown)
VH: VTLKESGPGILQPSQTLSLTCSFSGFSLSTYGIGVGWIRQPSGKGLEWLAHIWWNDDKYYNTALKSRLTISKDTSNNQVFLKIASVDTADTATYYCARVYYYGSSFDYWGQGTTLTVSS
VL: DIQMTQSPASLSASVGETVTITCRASENIFSILAWYQQKQGKSPQLLVYAATNLADGVPSRFSGSGSGTQFSLKINSLQPEDFGSYYCQHFYGTPWTFGGGTKLEIKR
notes: Mouse hybridoma monoclonal antibody
As for B1, the binding result in test [1] is “binds”.

B2: cF1232-10-1 (antibody, human IgG4, V domains shown)
VH: VTLKESGPGILQPSQTLSLTCSFSGFSLSTYGIGVGWIRQPSGKGLEWLAHIWWNDDKYYNTALKSRLTISKDTSNNQVFLKIASVDTADTATYYCARVYYYGSSFDYWGQGTTLTVSS
VL: DIQMTQSPASLSASVGETVTITCRASENIFSILAWYQQKQGKSPQLLVYAATNLADGVPSRFSGSGSGTQFSLKINSLQPEDFGSYYCQHFYGTPWTFGGGTKLEIKR
notes: Mouse/human chimeric antibody of F1232-10-1; human IgG4 and kappa constant regions; COS-1
In the case of B2, the binding result in [2] was “binds”.

B3: cF1232-37-2 (mouse/human chimeric antibody of F1232-37-2) (antibody, human IgG4, V domains shown)
VH: VQLQQSGPELVRPGESVKISCKGSGYTFTDYAIHWVKLSHAKSLEWIGVISIYYDDTNYNQKFKGKATMTVDKSSSTAYLELARLTSEDSAIYYCARRRDSSGPYAMDYWGQGTSVTVSS
VL: DIVLTQSPASLAVSLGQRATISCRASESVDSYGNSFMHWYQQKPGQPPKLLIYRASNLESGIPARFSGSGSRTDFTLTINPVEADDVATYYCQQSNEDPYTFGGGTKLEIKR
notes: Mouse V regions of F1232-37-2 with human IgG4 (Cgamma4) and human kappa constant regions; plasmids pTK-2510 and pTK-2511; made in COS-1 (/COS) and in CHO DXB11 (/CHO); also called cF1232-37-2/COS; cF1232-37-2/CHO
Consider B3, for which, in test [3], the “IC50 (read off the curve)” value was approximately 1 µg/mL. Also, the binding result with hGPVI-mL3-hFc and with hGPVI-K59E-hFc was “binds” in each case.

B4: F1232-37-2 Fab (Fab, V domains shown)
VH: VQLQQSGPELVRPGESVKISCKGSGYTFTDYAIHWVKLSHAKSLEWIGVISIYYDDTNYNQKFKGKATMTVDKSSSTAYLELARLTSEDSAIYYCARRRDSSGPYAMDYWGQGTSVTVSS
VL: DIVLTQSPASLAVSLGQRATISCRASESVDSYGNSFMHWYQQKPGQPPKLLIYRASNLESGIPARFSGSGSRTDFTLTINPVEADDVATYYCQQSNEDPYTFGGGTKLEIKR
notes: Fab made from mouse F1232-37-2 with papain; also called F1232-37-2 Fab antibody
A word on the EC50 (read off the curve): it is the concentration at which the effect is half-maximal. For the molecule B4, the “dissociation constant relative to that of the whole antibody (defined as one)” value in [4] is ~0.6 fold of whole F1232-37-2. Moreover, the “EC50 (read off the curve)” value in test [5] was approximately 300 ng/mL.

B5: F1232-37-2 F(ab')2 (other)
VH: VQLQQSGPELVRPGESVKISCKGSGYTFTDYAIHWVKLSHAKSLEWIGVISIYYDDTNYNQKFKGKATMTVDKSSSTAYLELARLTSEDSAIYYCARRRDSSGPYAMDYWGQGTSVTVSS
VL: DIVLTQSPASLAVSLGQRATISCRASESVDSYGNSFMHWYQQKPGQPPKLLIYRASNLESGIPARFSGSGSRTDFTLTINPVEADDVATYYCQQSNEDPYTFGGGTKLEIKRADAA
notes: F(ab')2 fragment made from mouse F1232-37-2 with Lysyl Endopeptidase; also called mouse monoclonal antibody F1232-37-2 F(ab')2
For B5, the “dissociation constant relative to that of the whole antibody (defined as one)” value in [6] was ~0.7 fold of whole F1232-37-2.

B6: PEG-F1232-372Fab (Fab, V domains shown)
VH: VQLQQSGPELVRPGESVKISCKGSGYTFTDYAIHWVKLSHAKSLEWIGVISIYYDDTNYNQKFKGKATMTVDKSSSTAYLELARLTSEDSAIYYCARRRDSSGPYAMDYWGQGTSVTVSS
VL: DIVLTQSPASLAVSLGQRATISCRASESVDSYGNSFMHWYQQKPGQPPKLLIYRASNLESGIPARFSGSGSRTDFTLTINPVEADDVATYYCQQSNEDPYTFGGGTKLEIK
modifications: linear 20 KD PEG with succinimide group; sites not given ; Linear 20 KD PEG with succinimide group coupled to the Fab; sites and number not given.
notes: also called PEGylated F1232-37-2 Fab antibody; PEGylated F1232-37-2Fab fragment; copies: 1 + 1
In the case of B6, the “EC50 (read off the curve)” value in test [5] is approximately 300 ng/mL.

B7: F1232-37-2 (antibody, V domains shown)
VH: VQLQQSGPELVRPGESVKISCKGSGYTFTDYAIHWVKLSHAKSLEWIGVISIYYDDTNYNQKFKGKATMTVDKSSSTAYLELARLTSEDSAIYYCARRRDSSGPYAMDYWGQGTSVTVSS
VL: DIVLTQSPASLAVSLGQRATISCRASESVDSYGNSFMHWYQQKPGQPPKLLIYRASNLESGIPARFSGSGSRTDFTLTINPVEADDVATYYCQQSNEDPYTFGGGTKLEIKR
notes: Mouse hybridoma monoclonal antibody; also called F1232-37-2 antibody; F1232-37-2 whole antibody
As for B7, the “EC50 (read off the curve)” value in test [7] is approximately 20 ng/mL. For the same molecule, the Kd in test [8] came to 0.403 nM; in [9] it was 1 nM. The binding result with hGPVI-mL3-hFc and with hGPVI-K59E-hFc was “binds” throughout.
